Source: IntAct's records for PubMed 26779609

B1: Partner of xrn-2 protein 1 (Caenorhabditis elegans), Q21738 (parent)
chain: MGKLEDVEAEKKLWESDDAWELRKAFMLAHYDDYPKIQLQCLSQLFINVTLLGCEYSQTLMQKIRTMGAGIAANKDRTKTGSYVKASAAKKRQAVKTSDLEGASDESKKVKMEKSPSPVARESFDERLGKLKASLAMTPHHLTGEQMMKTATNSCLMKWHVNKINQKIEITIDRYVAFRHTFSQYCVDPRDCAINTLIESILSCDAAVHEESYEIRFDGVPVDECYAKSVTRRLAKIKSAVSNGAHTVKGLTTYLDAVNMSMIQNTQKLEGWSQQLDLVTADLLLSSRVLSSTECTKPAMATIANQMSEDVCQLILNDKINVINSMKSHSSLAFQ
partner: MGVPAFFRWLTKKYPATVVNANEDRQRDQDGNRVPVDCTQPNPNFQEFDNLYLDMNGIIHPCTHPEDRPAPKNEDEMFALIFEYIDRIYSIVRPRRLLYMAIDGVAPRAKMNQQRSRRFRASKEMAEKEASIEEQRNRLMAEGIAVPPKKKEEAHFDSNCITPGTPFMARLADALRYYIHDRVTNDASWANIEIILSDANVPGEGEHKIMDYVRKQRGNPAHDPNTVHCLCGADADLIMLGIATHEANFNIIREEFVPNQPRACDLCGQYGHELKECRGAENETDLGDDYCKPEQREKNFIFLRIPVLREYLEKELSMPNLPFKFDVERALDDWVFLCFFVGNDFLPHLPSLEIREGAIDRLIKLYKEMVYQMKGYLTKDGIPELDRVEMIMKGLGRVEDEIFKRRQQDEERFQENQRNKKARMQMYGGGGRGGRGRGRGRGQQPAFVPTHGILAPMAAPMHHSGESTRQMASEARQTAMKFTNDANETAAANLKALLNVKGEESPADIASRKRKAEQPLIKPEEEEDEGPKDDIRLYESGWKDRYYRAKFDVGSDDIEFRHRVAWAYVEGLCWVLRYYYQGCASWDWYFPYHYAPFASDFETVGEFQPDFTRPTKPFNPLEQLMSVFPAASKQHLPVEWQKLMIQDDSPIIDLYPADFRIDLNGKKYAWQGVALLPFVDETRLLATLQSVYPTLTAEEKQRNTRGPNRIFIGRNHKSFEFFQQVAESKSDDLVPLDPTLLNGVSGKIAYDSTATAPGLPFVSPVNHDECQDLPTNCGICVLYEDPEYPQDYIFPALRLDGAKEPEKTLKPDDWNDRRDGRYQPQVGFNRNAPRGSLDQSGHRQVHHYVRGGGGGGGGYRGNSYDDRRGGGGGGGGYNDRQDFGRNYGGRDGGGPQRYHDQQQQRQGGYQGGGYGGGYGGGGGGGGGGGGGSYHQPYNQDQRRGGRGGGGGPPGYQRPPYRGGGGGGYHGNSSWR
B2: CDKN2AIP N-terminal-like protein (Homo sapiens), Q96HQ2 (parent)
chain: MVGGEAAAAVEELVSGVRQAADFAEQFRSYSESEKQWKARMEFILRHLPDYRDPPDGSGRLDQLLSLSMVWANHLFLGCSYNKDLLDKVMEMADGIEVEDLPQFTTRSELMKKHQS
partner: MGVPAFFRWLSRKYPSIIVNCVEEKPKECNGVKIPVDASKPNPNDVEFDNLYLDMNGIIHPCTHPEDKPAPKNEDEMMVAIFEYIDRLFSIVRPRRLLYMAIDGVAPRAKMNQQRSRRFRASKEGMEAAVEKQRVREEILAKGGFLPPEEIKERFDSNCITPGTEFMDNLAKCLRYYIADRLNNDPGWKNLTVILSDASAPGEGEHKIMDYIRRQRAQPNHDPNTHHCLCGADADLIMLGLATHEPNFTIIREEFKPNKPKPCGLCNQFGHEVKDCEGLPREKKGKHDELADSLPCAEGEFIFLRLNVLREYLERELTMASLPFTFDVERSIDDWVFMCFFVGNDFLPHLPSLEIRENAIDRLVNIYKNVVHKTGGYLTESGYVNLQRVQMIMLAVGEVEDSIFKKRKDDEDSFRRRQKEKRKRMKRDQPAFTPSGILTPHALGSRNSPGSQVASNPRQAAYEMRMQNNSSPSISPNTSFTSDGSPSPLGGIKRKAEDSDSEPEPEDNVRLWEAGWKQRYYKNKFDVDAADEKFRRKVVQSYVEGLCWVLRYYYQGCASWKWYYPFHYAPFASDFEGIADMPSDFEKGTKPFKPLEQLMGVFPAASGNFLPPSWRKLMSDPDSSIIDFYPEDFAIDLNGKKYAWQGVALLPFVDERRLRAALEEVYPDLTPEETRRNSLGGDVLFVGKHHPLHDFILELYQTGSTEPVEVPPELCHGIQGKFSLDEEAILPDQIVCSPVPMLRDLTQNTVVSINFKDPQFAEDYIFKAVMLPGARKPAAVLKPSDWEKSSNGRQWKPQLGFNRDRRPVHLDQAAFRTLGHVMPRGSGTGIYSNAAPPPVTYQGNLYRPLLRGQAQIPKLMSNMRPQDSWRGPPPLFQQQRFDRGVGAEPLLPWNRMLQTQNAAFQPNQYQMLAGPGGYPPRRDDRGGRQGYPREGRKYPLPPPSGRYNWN

Variants of: B1
Conditions: with xrn2_caeel xrn-2, Q9U299

effect of a mutation on the interaction | Variant
disrupting interaction strength | MGKLEDVEAEKKLWESDDAWELRKAFMLAHYDDYPKIQLQCLSQLFINVTLLGAEYSQTLMQKIRTMGAGIAANKDRTKTGSYVKASAAKKRQAVKTSDLEGASDESKKVKMEKSPSPVARESFDERLGKLKASLAMTPHHLTGEQMMKTATNSCLMKWHVNKINQKIEITIDRYVAFRHTFSQYCVDPRDCAINTLIESILSCDAAVHEESYEIRFDGVPVDECYAKSVTRRLAKIKSAVSNGAHTVKGLTTYLDAVNMSMIQNTQKLEGWSQQLDLVTADLLLSSRVLSSTECTKPAMATIANQMSEDVCQLILNDKINVINSMKSHSSLAFQ [C54A]
disrupting interaction strength | MGKLEDVEAEKKLWESDDAWELRKAFMLAHYDDYPKIQLQCLSQLFINVTLLGCEASQTLMQKIRTMGAGIAANKDRTKTGSYVKASAAKKRQAVKTSDLEGASDESKKVKMEKSPSPVARESFDERLGKLKASLAMTPHHLTGEQMMKTATNSCLMKWHVNKINQKIEITIDRYVAFRHTFSQYCVDPRDCAINTLIESILSCDAAVHEESYEIRFDGVPVDECYAKSVTRRLAKIKSAVSNGAHTVKGLTTYLDAVNMSMIQNTQKLEGWSQQLDLVTADLLLSSRVLSSTECTKPAMATIANQMSEDVCQLILNDKINVINSMKSHSSLAFQ [Y56A]

Variants of: B2
Conditions: with xrn2_human XRN2, Q9H0D6

effect of a mutation on the interaction | Variant
disrupting interaction strength | MVGGEAAAAVEELVSGVRQAADFAEQFRSYSESEKQWKARMEFILRHLPDYRDPPDGSGRLDQLLSLSMVWANHLFLGCSANKDLLDKVMEMADGIEVEDLPQFTTRSELMKKHQS [Y81A]
